Assay results from the supplement of paper PMC6755084.

B1: minF1; the commonest letter at each place (parent)
chain: GAGACCGCAACTGAAAAGTTGTTATCAGAAATGGATGGGTTGAATTTCTGCACGTAGAAGCAAAAGGC

Variants of: B1
Experiment: fraction ligated after 30 min (ligated reads / total reads); higher = more ligase activity
Conditions: with F1*subA RNA substrate (template-directed ligation), 42 °C
Outline: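 Oligo-pool templates of minimized ligase ribozyme variants were PCR-amplified, T7-transcribed and gel-purified. Ligated and unligated RNAs were gel-separated, reverse transcribed with barcoded primers, and MiSeq-sequenced; core bases were filtered at quality ≥30. Fraction ligated per variant was ligated reads over total reads.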

Going from GAGACCGCAACTGAAAAGTTGTTAGCAAAAATGGATGGGTTGAATTTCTGCACGTAGAAGCAAAAGGC to GAGACCGCAACTGAAAAGTTGTTAGCAGAAATGGATGGGTTGACTTTCTGCACGTAGAAGCAAAAGGC, the fraction ligated falls from 0.0158 to 0.00312.

Compared with GAGACCGCAACTGAAAAGTTGTTAGCAGAAATGGATGGGTTGATTTTCTGCACGTAGAAGCAAAAGGC, GAGACCGCAACTGAAAAGTTGTTAGCAGAAATGGATGGGTTGAGTTTCTGCACGTAGAAGCAAAAGGC is higher in fraction ligated: 0.00667 for the first, 0.00956 for the second.

Going from GAGACCGCAACTGAAAAGTTGTTAGCAGTAATGGATGGGTTGAATTTCTGCACGTAGAAGCAAAAGGC to GAGACCGCAACTGAAAAGTTGTTAGCAGCAATGGATGGGTTGAATTTCTGCACGTAGAAGCAAAAGGC, the fraction ligated falls from 0.0188 to 0.0105.

Going from GAGACCGCAACTGAAAAGTTGTTAGCAGGAATGGATGGGTTGAATTTCTGCACGTAGAAGCAAAAGGC to GAGACCGCAACTGAAAAGTTGTTACCAGAAATTGATGGGTTGAATTTCTGCACGTAGAAGCAAAAGGC, the fraction ligated rises from 0.0196 to 0.0306.

First: GAGACCGCAACTGAAAAGTTGTTACCAGAAATCGATGGGTTGAATTTCTGCACGTAGAAGCAAAAGGC
Second: GAGACCGCAACTGAAAAGTTGTTACCAGAAATAGATGGGTTGAATTTCTGCACGTAGAAGCAAAAGGC
The fraction ligated of the first is lower: 0.0119 for the first, 0.0508 for the second.

Going from GAGACCGCAACTGAAAAGTTGTTAGCAGAATTGGATGGGTTGAATTTCTGCACGTAGAAGCAAAAGGC to GAGACCGCAACTGAAAAGTTGTTAGCAGAAGTGGATGGGTTGAATTTCTGCACGTAGAAGCAAAAGGC, the fraction ligated rises from 0.0111 to 0.0115.

Going from GAGACCGCAACTGAAAAGTTGTTAGCAGAACTGGATGGGTTGAATTTCTGCACGTAGAAGCAAAAGGC to GAGACCGCAACTGAAAAGTTGTTACCAGAAATGAATGGGTTGAATTTCTGCACGTAGAAGCAAAAGGC, the fraction ligated falls from 0.0154 to 0.00778.

Compared with GAGACCGCAACTGAAAAGTTGTTACCAGAAATGTATGGGTTGAATTTCTGCACGTAGAAGCAAAAGGC, GAGACCGCAACTGAAAAGTTGTTACCAGAAATGCATGGGTTGAATTTCTGCACGTAGAAGCAAAAGGC is lower in fraction ligated: 0.00336 for the first, 0.00188 for the second.

Compared with GAGACCGCAACTGAAAAGTTGTTACCTGAAATGGATGGGTTGAATTTCTGCACGTAGAAGCAAAAGGC, GAGACCGCAACTGAAAAGTTGTTACCCGAAATGGATGGGTTGAATTTCTGCACGTAGAAGCAAAAGGC is lower in fraction ligated: 0.407 for the first, 0.113 for the second.

Compared with GAGACCGCAACTGAAAAGTTGTTACCGGAAATGGATGGGTTGAATTTCTGCACGTAGAAGCAAAAGGC, GAGACCGCAACTGAAAAGTTGTTACCAGAAATGGAAGGGTTGAATTTCTGCACGTAGAAGCAAAAGGC is lower in fraction ligated: 0.209 for the first, 0.0394 for the second.

Going from GAGACCGCAACTGAAAAGTTGTTACCAGAAATGGACGGGTTGAATTTCTGCACGTAGAAGCAAAAGGC to GAGACCGCAACTGAAAAGTTGTTACCAGAAATGGAGGGGTTGAATTTCTGCACGTAGAAGCAAAAGGC, the fraction ligated rises from 0.00974 to 0.0541.

Compared with GAGACCGCAACTGAAAAGTTGTTACCAGTAATGGATGGGTTGAATTTCTGCACGTAGAAGCAAAAGGC, GAGACCGCAACTGAAAAGTTGTTACCAGCAATGGATGGGTTGAATTTCTGCACGTAGAAGCAAAAGGC is lower in fraction ligated: 0.0467 for the first, 0.0251 for the second.

Going from GAGACCGCAACTGAAAAGTTGTTACCAGGAATGGATGGGTTGAATTTCTGCACGTAGAAGCAAAAGGC to GAGACCGCAACTGAAAAGTTGTTAGCAGAAATGGATGGGTTGCATTTCTGCACGTAGAAGCAAAAGGC, the fraction ligated falls from 0.0416 to 0.00324.

Compared with GAGACCGCAACTGAAAAGTTGTTAGCAGAAATGGATGGGTTGGATTTCTGCACGTAGAAGCAAAAGGC, GAGACCGCAACTGAAAAGTTGTTAGCAGAAATGGATGGGTTGTATTTCTGCACGTAGAAGCAAAAGGC is higher in fraction ligated: 0.00372 for the first, 0.00824 for the second.

Compared with GAGACCGCAACTGAAAAGTTGTTACTAGAAATGGATGGGTTGAATTTCTGCACGTAGAAGCAAAAGGC, GAGACCGCAACTGAAAAGTTGTTACGAGAAATGGATGGGTTGAATTTCTGCACGTAGAAGCAAAAGGC is lower in fraction ligated: 0.079 for the first, 0.00975 for the second.

Compared with GAGACCGCAACTGAAAAGTTGTTACAAGAAATGGATGGGTTGAATTTCTGCACGTAGAAGCAAAAGGC, GAGACCGCAACTGAAAAGTTGTTACCAGATATGGATGGGTTGAATTTCTGCACGTAGAAGCAAAAGGC is higher in fraction ligated: 0.00962 for the first, 0.0786 for the second.

Compared with GAGACCGCAACTGAAAAGTTGTTACCAGACATGGATGGGTTGAATTTCTGCACGTAGAAGCAAAAGGC, GAGACCGCAACTGAAAAGTTGTTACCAGAGATGGATGGGTTGAATTTCTGCACGTAGAAGCAAAAGGC is lower in fraction ligated: 0.081 for the first, 0.0308 for the second.

Compared with GAGACCGCAACTGAAAAGTTGTTAGAAGAAATGGATGGGTTGAATTTCTGCACGTAGAAGCAAAAGGC, GAGACCGCAACTGAAAAGTTGTTAGGAGAAATGGATGGGTTGAATTTCTGCACGTAGAAGCAAAAGGC is higher in fraction ligated: 0.00653 for the first, 0.00725 for the second.

Compared with GAGACCGCAACTGAAAAGTTGTTAGTAGAAATGGATGGGTTGAATTTCTGCACGTAGAAGCAAAAGGC, GAGACCGCAACTGAAAAGTTGTTACCAGAAATGGATAGGTTGAATTTCTGCACGTAGAAGCAAAAGGC is higher in fraction ligated: 0.00381 for the first, 0.00575 for the second.

First: GAGACCGCAACTGAAAAGTTGTTACCAGAAATGGATCGGTTGAATTTCTGCACGTAGAAGCAAAAGGC
Second: GAGACCGCAACTGAAAAGTTGTTACCAGAAATGGATTGGTTGAATTTCTGCACGTAGAAGCAAAAGGC
The fraction ligated of the first is lower: 0.00302 for the first, 0.00523 for the second.

Going from GAGACCGCAACTGAAAAGTTGTTACCAGAAACGGATGGGTTGAATTTCTGCACGTAGAAGCAAAAGGC to GAGACCGCAACTGAAAAGTTGTTACCAGAAAAGGATGGGTTGAATTTCTGCACGTAGAAGCAAAAGGC, the fraction ligated rises from 0.00341 to 0.00778.

First: GAGACCGCAACTGAAAAGTTGTTACCAGAAAGGGATGGGTTGAATTTCTGCACGTAGAAGCAAAAGGC
Second: GAGACCGCAACTGAAAAGTTGTTACCAGAAGTGGATGGGTTGAATTTCTGCACGTAGAAGCAAAAGGC
The fraction ligated of the first is lower: 0.00219 for the first, 0.057 for the second.

Compared with GAGACCGCAACTGAAAAGTTGTTACCAGAATTGGATGGGTTGAATTTCTGCACGTAGAAGCAAAAGGC, GAGACCGCAACTGAAAAGTTGTTACCAGAACTGGATGGGTTGAATTTCTGCACGTAGAAGCAAAAGGC is lower in fraction ligated: 0.0613 for the first, 0.0548 for the second.

Going from GAGACCGCAACTGAAAAGTTGTTAACAGAAACGGATGGGTTGAATTTCTGCACGTAGAAGCAAAAGGC to GAGACCGCAACTGAAAAGTTGTTAACAGAAAGGGATGGGTTGAATTTCTGCACGTAGAAGCAAAAGGC, the fraction ligated falls from 0.00391 to 0.00199.

Compared with GAGACCGCAACTGAAAAGTTGTTAACAGAAAAGGATGGGTTGAATTTCTGCACGTAGAAGCAAAAGGC, GAGACCGCAACTGAAAAGTTGTTAGCAGAAATGGCTGGGTTGAATTTCTGCACGTAGAAGCAAAAGGC is higher in fraction ligated: 0.00329 for the first, 0.845 for the second.

First: GAGACCGCAACTGAAAAGTTGTTAGCAGAAATGGTTGGGTTGAATTTCTGCACGTAGAAGCAAAAGGC
Second: GAGACCGCAACTGAAAAGTTGTTAGCAGAAATGGGTGGGTTGAATTTCTGCACGTAGAAGCAAAAGGC
The fraction ligated of the first is higher: 0.396 for the first, 0.00379 for the second.

Going from GAGACCGCAACTGAAAAGTTGTTAACAGAAATGGATGGGTTTAATTTCTGCACGTAGAAGCAAAAGGC to GAGACCGCAACTGAAAAGTTGTTACCAGAAATGGTTGGGTTGAATTTCTGCACGTAGAAGCAAAAGGC, the fraction ligated rises from 0.00246 to 0.009.

Compared with GAGACCGCAACTGAAAAGTTGTTACCAGAAATGGGTGGGTTGAATTTCTGCACGTAGAAGCAAAAGGC, GAGACCGCAACTGAAAAGTTGTTACCAGAAATGGCTGGGTTGAATTTCTGCACGTAGAAGCAAAAGGC is lower in fraction ligated: 0.0463 for the first, 0.00531 for the second.

Compared with GAGACCGCAACTGAAAAGTTGTTAGCAGACATGGATGGGTTGAATTTCTGCACGTAGAAGCAAAAGGC, GAGACCGCAACTGAAAAGTTGTTAGCAGATATGGATGGGTTGAATTTCTGCACGTAGAAGCAAAAGGC is higher in fraction ligated: 0.0106 for the first, 0.0162 for the second.

Going from GAGACCGCAACTGAAAAGTTGTTAGCAGAGATGGATGGGTTGAATTTCTGCACGTAGAAGCAAAAGGC to GAGACCGCAACTGAAAAGTTGTTAACAGAAATGGACGGGTTGAATTTCTGCACGTAGAAGCAAAAGGC, the fraction ligated falls from 0.0222 to 0.00785.

Going from GAGACCGCAACTGAAAAGTTGTTAACAGAAATGGAGGGGTTGAATTTCTGCACGTAGAAGCAAAAGGC to GAGACCGCAACTGAAAAGTTGTTAACAGAAATGGAAGGGTTGAATTTCTGCACGTAGAAGCAAAAGGC, the fraction ligated falls from 0.0106 to 0.00698.

Going from GAGACCGCAACTGAAAAGTTGTTACCAGAAATGGATGGGTTGAGTTTCTGCACGTAGAAGCAAAAGGC to GAGACCGCAACTGAAAAGTTGTTACCAGAAATGGATGGGTTGATTTTCTGCACGTAGAAGCAAAAGGC, the fraction ligated rises from 0.0106 to 0.0143.

First: GAGACCGCAACTGAAAAGTTGTTACCAGAAATGGATGGGTTGACTTTCTGCACGTAGAAGCAAAAGGC
Second: GAGACCGCAACTGAAAAGTTGTTAGCAGAAATGGATGGGTTGAATTTCTGCACGTAGAAGCAAAAGGC
The fraction ligated of the first is lower: 0.00738 for the first, 0.0165 for the second.

Going from GAGACCGCAACTGAAAAGTTGTTACCAGAAATGGATGGGTTGAATTTCTGCACGTAGAAGCAAAAGGC to GAGACCGCAACTGAAAAGTTGTTAGCGGAAATGGATGGGTTGAATTTCTGCACGTAGAAGCAAAAGGC, the fraction ligated falls from 0.0278 to 0.0208.

Going from GAGACCGCAACTGAAAAGTTGTTAGCTGAAATGGATGGGTTGAATTTCTGCACGTAGAAGCAAAAGGC to GAGACCGCAACTGAAAAGTTGTTAGCCGAAATGGATGGGTTGAATTTCTGCACGTAGAAGCAAAAGGC, the fraction ligated falls from 0.0947 to 0.0754.

Compared with GAGACCGCAACTGAAAAGTTGTTACCACAAATGGATGGGTTGAATTTCTGCACGTAGAAGCAAAAGGC, GAGACCGCAACTGAAAAGTTGTTACCATAAATGGATGGGTTGAATTTCTGCACGTAGAAGCAAAAGGC is higher in fraction ligated: 0.165 for the first, 0.207 for the second.

Going from GAGACCGCAACTGAAAAGTTGTTACCAAAAATGGATGGGTTGAATTTCTGCACGTAGAAGCAAAAGGC to GAGACCGCAACTGAAAAGTTGTTACCAGAAATGGATGGGTTTAATTTCTGCACGTAGAAGCAAAAGGC, the fraction ligated falls from 0.15 to 0.00269.

Going from GAGACCGCAACTGAAAAGTTGTTACCAGAAATGGATGGGTTAAATTTCTGCACGTAGAAGCAAAAGGC to GAGACCGCAACTGAAAAGTTGTTACCAGAAATGGATGGGTTCAATTTCTGCACGTAGAAGCAAAAGGC, the fraction ligated rises from 0.00331 to 0.00383.

Compared with GAGACCGCAACTGAAAAGTTGTTACCAGAAATGGATGGGTTGTATTTCTGCACGTAGAAGCAAAAGGC, GAGACCGCAACTGAAAAGTTGTTACCAGAAATGGATGGGTTGCATTTCTGCACGTAGAAGCAAAAGGC is higher in fraction ligated: 0.00508 for the first, 0.0068 for the second.

With GAGACCGCAACTGAAAAGTTGTTACCAGAAATGGATGGGTTGGATTTCTGCACGTAGAAGCAAAAGGC the fraction ligated was 0.00741.
